B1: Zinc finger MYM-type protein 3, residues 589 to 668; numbered along this chain, Q14202 (parent)
chain: LSCHYCHSLFSGKPEVLDWQDQVFQFCCRDCCEDFKRLRGVVSQCEHCRQEKLLHEKLRFSGVEKSFCSEGCVLLYKQDF
B2: Nucleolar transcription factor 1, residues 408 to 469; numbered along this chain, P17480 (parent)
chain: KRPVSAMFIFSEEKRRQLQEERPELSESELTRLLARMWNDLSEKKKAKYKAREAALKAQSER

Variants of: B1
Assay: abundance fitness (aPCA) (normalised: wild type 0, dead -1); higher = more abundant; growth selection in yeast, the domain comes from the species named
Details: Homo sapiens

Abundance fitness, by site and new letter:
Q22: L 0.063
V23: Q 0.246
G12: T 0.039, F -0.384, A 0.013
S11: C -0.512
Q50: K -0.071, S -0.356
F35: I -0.624, Q -0.421, P -0.842, E -0.157, R -0.726, T -0.607, N -0.924, K -0.529, D -0.549, C -0.467
C45: Q -1
Q44: E 0.49
L74: M 0.292, T 0.151
H7: K 0.055, N 0.126, G 0.117
K57: F -0.16, I 0.297, Q -0.131, A -0.487, N -0.237, R 0.092
C3: S -1.06, E -0.823, Q -0.998
D30: T 0.131, W -0.227, G 0.057, M 0.3, A 0.027
F60: G -0.314
L38: S 0.05, E 0.302, C 0.11, Y -0.041
K65: T -0.495, A -0.268, Y -0.113, R -0.115
D21: G -0.114, T 0.004

Variants of: B2
Assay: as above
Details: Homo sapiens

Abundance fitness: each site, then its substitutions
K1: H -0.212, M 0.004, W -0.205, T -0.06, C -0.367, I 0, N -0.191, G -0.08, R -0.199, V -0.136, E -0.139, Y -0.105, A -0.287, S -0.276, F -0.245, Q -0.196, L -0.048, D 0.006
V4: E 0.037, F -0.156, Y -0.099, D -0.011, T -0.111, I -0.018, S -0.082, C -0.213, R -0.24, L -0.031, M -0.031, N -0.104, Q -0.099, H -0.172, W -0.602, A -0.061, P -0.238, G -0.094, K -0.053
A6: G -0.045, F -0.573, T -0.44, V -0.488, C -0.225, Y -0.155, L -0.661, P -0.306, W -0.453, E -0.17, S -0.191, M -0.418, D -0.191, R -0.401, H -0.534, Q -0.331
P3: A -0.137, V -0.02, Q -0.011, L -0.068, E -0.059, S -0.014, W -0.297, H -0.061, G -0.083, I 0.036, F -0.021, T 0.021, Y -0.071, R -0.095, C -0.264, D -0.04
R2: C -0.178, F -0.043, T -0.143, I -0.158, V -0.049, A -0.151, G -0.204, S -0.072, E -0.132, D -0.109, W -0.453, M -0.13, L -0.215, Q -0.317, H -0.025, Y 0.01, N -0.003
M7: A -0.038, K -0.015, C -0.066, H -0.028, F -0.015, T -0.22, L -0.086, S -0.056, R -0.043, P -0.053, N -0.086, D -0.144, G -0.131, Q 0.012, E -0.045, I -0.151
S5: K -0.041, C -0.148, W -0.455, I -0.178, N 0.047, P -0.112, T -0.042, G -0.031, L -0.164, M -0.196, Y -0.146, Q -0.115, E 0.042, V -0.187, D -0.02

— the Human Domainome abundance scans (Beltran et al. 2025)
